By Ki is commonly meant the dissociation constant of the complex between target and ligand, obtained from inhibition or displacement. A lower Ki goes with higher affinity. The term IC50 denotes the concentration that gives 50% inhibition.

The values below come from EP1167527A9 (Euroscreen S.A., dated 2002).

For assay [1], the target named is T1, chemokine receptor CCR1 (human, UniProt P32246 1-355).
T1 construct: whole, on cells
T1 sequence (looked up): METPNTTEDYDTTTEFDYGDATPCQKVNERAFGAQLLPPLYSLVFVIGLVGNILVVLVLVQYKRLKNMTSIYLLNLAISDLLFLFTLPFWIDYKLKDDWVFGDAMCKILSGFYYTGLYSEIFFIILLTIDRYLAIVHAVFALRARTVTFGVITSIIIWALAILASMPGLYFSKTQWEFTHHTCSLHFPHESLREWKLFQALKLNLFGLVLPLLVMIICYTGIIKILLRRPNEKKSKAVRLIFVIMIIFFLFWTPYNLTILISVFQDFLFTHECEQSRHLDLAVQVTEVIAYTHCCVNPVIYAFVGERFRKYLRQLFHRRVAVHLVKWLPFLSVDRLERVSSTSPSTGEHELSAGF
Nature of the assay: radioligand competition, 125I-Rantes tracer, CCR1.

Assay [2] has as its target T2, chemokine receptor 5 (CCR5; AC P51681) (human, UniProt P51681 1-352).
T2 construct: whole, on cells
Put plainly: radioligand competition, 0.1 nM 125I-MIP 1-alpha tracer, crude membranes of CHO-K1 cells expressing CCR5.

Assay [3] concerns the target T2, chemokine receptor 5 (CCR5; AC P51681). Nature of the assay: radioligand competition, 125I-MIP 1-alpha tracer, CCR5. Background: Displacement assays read how much labelled ligand stays bound in the presence of the test substance.
Assay [4] has as its target T1, chemokine receptor CCR1. Put plainly: cell-based or functional assay.
Assay [5] concerns the target T3, chemokine receptor CCR3 (human, UniProt P51677 1-355).
T3 sequence (looked up): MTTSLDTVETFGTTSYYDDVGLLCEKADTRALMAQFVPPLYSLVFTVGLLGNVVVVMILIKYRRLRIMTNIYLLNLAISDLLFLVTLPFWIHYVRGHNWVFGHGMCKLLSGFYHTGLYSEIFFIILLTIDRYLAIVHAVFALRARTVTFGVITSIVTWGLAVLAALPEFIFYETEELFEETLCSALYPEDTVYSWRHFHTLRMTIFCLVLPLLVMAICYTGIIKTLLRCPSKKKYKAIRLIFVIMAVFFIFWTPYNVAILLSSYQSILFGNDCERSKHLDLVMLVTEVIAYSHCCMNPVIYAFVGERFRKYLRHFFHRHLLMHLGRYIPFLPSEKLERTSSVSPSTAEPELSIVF
Nature of the assay: cell-based or functional assay.

Assay [6] deals with T2, chemokine receptor 5 (CCR5; AC P51681). Put plainly: cell-based or functional assay.
In assay [7] the target is T3, chemokine receptor CCR3. Nature of the assay: radioligand competition, 125I-Eotaxin tracer, CCR3.
The target of assay [8] is T1, chemokine receptor CCR1. Put plainly: radioligand competition, 0.1 nM 125I-Rantes tracer, crude membranes of CHO-K1 cells expressing CCR1.
In assay [9] the target is T3, chemokine receptor CCR3. Nature of the assay: radioligand competition, 0.1 nM 125I-Eotaxin tracer, crude membranes of CHO-K1 cells expressing CCR3.
Assay [10] deals with T1, chemokine receptor CCR1. Put plainly: radioligand competition binding, CCR1.

T2 sequence (P51681 whole entry, one chain of several): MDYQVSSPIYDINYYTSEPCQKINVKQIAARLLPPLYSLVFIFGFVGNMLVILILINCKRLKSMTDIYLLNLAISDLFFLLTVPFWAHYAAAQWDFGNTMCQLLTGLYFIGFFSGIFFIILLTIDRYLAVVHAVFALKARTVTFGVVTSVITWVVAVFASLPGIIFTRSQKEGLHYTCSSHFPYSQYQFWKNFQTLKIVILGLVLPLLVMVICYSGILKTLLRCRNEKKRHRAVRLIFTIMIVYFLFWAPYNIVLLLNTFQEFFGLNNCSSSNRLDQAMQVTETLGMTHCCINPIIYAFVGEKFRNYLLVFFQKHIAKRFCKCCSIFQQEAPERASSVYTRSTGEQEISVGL

B1: processed human chemokine PHC-1 (ligand)
chain: GPYHPSECCFTYTTYKIPRQRIMDYYETNSQCSKPGIVFITKRGHSVCTNPSDKWVQDYIKDMKEN
notes: Purified from human hemofiltrate or made by tryptic digestion of HCC-1 (1-74); also called HCC-1[9-74]; HCC-1, residues 9-74
B1: the results for the Ki (in the assay with chemokine receptor CCR1 [1]; in assay [3]; in the assay with chemokine receptor CCR3 [7]) were 0.023 nM, 0.04 nM and 2.7 nM, respectively. The IC50 was 0.04 nM in [2], 2.3 nM with chemokine receptor CCR1 [8] and 78 nM in the assay with chemokine receptor CCR3 [9]. Moreover, the “functional aequorin-based assay, EC50” value is 2.8 nM with chemokine receptor CCR1 [4] and 78 nM with chemokine receptor CCR3 [5]. Also, the “aequorin assay (intracellular calcium), CHO-K1 cells expressing CCR5, EC50” value (from here on “aequorin assay (intracellular calcium)”) in [6] is 4.8 nM.

B2: MIP 1-alpha (ligand, UniProt P10147 24-92, looked up)
chain: SLAADTPTACCFSYTSRQIPQNFIADYFETSSQCSKPGVIFLTKRSRQVCADPSEEWVQKYVSDLELSA
In the case of B2, the “aequorin assay (intracellular calcium)” value in assay [6] was found to be 3.3 nM.

B3: full size human chemokine HCC-1, amino acid residues 1-74 (ligand)
chain: TKTESSSRGPYHPSECCFTYTTYKIPRQRIMDYYETNSQCSKPGIVFITKRGHSVCTNPSDKWVQDYIKDMKEN
notes: 74-residue chemokine, Mr 8673; Swiss-Prot Q16627 is printed for the HCC-1 precursor; also called full-size HCC-1; full length HCC-1
Molecule B3 came in with an inhibitory constant (Ki) in the assay with chemokine receptor CCR1 [10] of 100 nM. That is a sub-micromolar value.

B4: RANTES (ligand, UniProt P13501 24-91, looked up)
chain: SPYSSDTTPCCFAYIARPLPRAHIKEYFYTSGKCSNPAVVFVTRKNRQVCANPEKKWVREYINSLEMS
Take B4: the “functional aequorin-based assay, EC50” value in the assay with chemokine receptor CCR1 [4] was 6.3 nM. In addition, in [6], the “aequorin assay (intracellular calcium)” value was 2.4 nM.
